These results are taken from patent US20240166738A1 (priority 2021, published 2024).

The assay deals with GST-TMEM106B (truncated, comprising amino acids 122-210 of SEQ ID NO:1) (Homo sapiens, UniProt Q9NUM4). The experiment in a line: Pre-mix epitope binning of anti-TMEM106B antibodies (Carterra / Lake Pharma). The class given is binding. Also noted: key to epitope bin: Bin 1: competes for binding to the same or overlapping TMEM106B region as the TM1, TM17, TM22, TM26, TM79, and/or TM82 antibodies; Bin 2: competes for binding to the same or overlapping TMEM106B region as the TM3, TM9, TM10, TM11, TM12, TM13, TM18, TM19, TM21, TM24, TM25, TM32, TM35, TM37, TM42, TM45, TM48, TM54, TM59, TM60, TM61, and/or TM76 antibodies; Bin 3: competes for binding to the same or overlapping TMEM106B region as the TM7, TM15, TM83, and/or TM84 antibodies; Bin 4: competes for binding to the same or overlapping TMEM106B region as the TMS, TM28, TM29, TM30, TM63, TM64, TM72, TM78, TM80, TM86, and/or TM88 antibodies; Bin 5: does not bind to a truncated TMEM106B comprising amino acids 122-210 of SEQ ID NO:1. As to conditions: for epitope bin: competition for binding to truncated GST-TMEM106B (amino acids 122-210); for Binding Community/Bin: epitope bin number, pre-mix binning on truncated GST-TMEM106B.
Chain of GST-TMEM106B (truncated, comprising amino acids 122-210 of SEQ ID NO:1) (Q9NUM4 122-210): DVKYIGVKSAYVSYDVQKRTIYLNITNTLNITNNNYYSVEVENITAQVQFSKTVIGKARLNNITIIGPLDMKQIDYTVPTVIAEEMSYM

B1: TM-72: anti-TMEM106B monoclonal antibody; VH SEQ ID NO: 477, VL SEQ ID NO: 512 (antibody, V domains shown)
VH: QVQLQQPGAELVKPGTSVKLSCKASGSTFTNYWMHWVMQRPGQGLEWIGNIDPSDSDTHYNQKFKDRAKLTVDKSSSTAYMQLSGLTSEDSAVYYCARSRGGYYDYGEAMDYWGQGTSVTVSS
VL: DIVMTQAAPSVPVTPGESVSISCRSSKSLLHTNGNTYLFWFIQRPGQSPHLLIYRKSNLASGVPDRFSGSGSGTAFTLRISRVEAEDVGVYYCMQHLEYPFTFGSGTKLEIK
modifications: Variable Heavy Chain -- TM-72; Variable Light Chain -- TM-71, TM-72
In the case of B1, the epitope bin entry is given as “Bin 4” and the “Binding Community/Bin” value came to 4.

B2: TM-63: anti-TMEM106B monoclonal antibody; VH SEQ ID NO: 469, VL SEQ ID NO: 505 (antibody, V domains shown)
VH: QVQLQQPGAELVKFGASVKLSCKASGYTFTSFWMHWVKQRPGQGLEWIGNIDPSDSETHYSQKFKDKATLTVDRSSNTAYIQLSSLTSEDSAVYYCARSSNWDNFDYWGQGTTVTVSS
VL: DIVMTQASPSVSVTPGESVSISCRSSQSLLHVNGNTYLYWFLQRPGRSPRLLIYRMSNLASGVPDRFSGSGSGTAFTLRISRVEAEDVGVYYCMQHLQYPFSFGSGTKLEMK
modifications: Variable Heavy Chain -- TM-63; Variable Light Chain -- TM-63
In the case of B2, the epitope bin entry is on record as “Bin 4” and the “Binding Community/Bin” value is listed as 4.

B3: TM-78: anti-TMEM106B monoclonal antibody; VH SEQ ID NO: 483, VL SEQ ID NO: 518 (antibody, V domains shown)
VH: QVQLQQPGAELVKPGASVKLSCKASGYTFTNHWMHWVRQRPGQGLEWIGNIDPSDSDTHYNHKFKDKATLIVDKSSSTAYLQLSSLTSEDSAVFYCARSRGGYYDYGEAMDYWGQGTSVTVSS
VL: DIVMTQATPSIPVTPGESVSISCRSSKSLLHVNGNTYLFWFLQRPGQSPQLLIYRMSNLASGVPDRFSGSGSGTAFTLRISRVEAEDVGVYYCMQHLEYPFTFGSGTKLEIK
modifications: Variable Heavy Chain -- TM-78; Variable Light Chain -- TM-78
On to B3, for which the epitope bin result was “Bin 4” and the “Binding Community/Bin” value is on record as 4.

B4: TM-64: anti-TMEM106B monoclonal antibody; VH SEQ ID NO: 470, VL SEQ ID NO: 506 (antibody, V domains shown)
VH: QVQLQQPGAELVKPGASVKLSCKASGYTFTSYWMHWVKQRPGHGLEWIGNIDPSDSDTHYNQNFRGKATLTVDKFSTTAYMHLSSLTSEDSAVYYCARSRGGTYDYGEAMDYWGQGTSVTVSS
VL: DIVMTQAAPSVPVTPGESVSISCRSSKSLLHTNGNTYLFWFLQRPGRSPQLLIYRMSNLASGVPDRFSGSGSGTAFTLRISRVEAEDVGVYYCMQHLEYPFTFGSGTKLEIK
modifications: Variable Heavy Chain -- TM-64; Variable Light Chain -- TM-64
In the case of B4, the epitope bin result is reported as “Bin 4” and the “Binding Community/Bin” value was determined as 4.

B5: TM-80: anti-TMEM106B monoclonal antibody; VH SEQ ID NO: 485, VL SEQ ID NO: 520 (antibody, V domains shown)
VH: QVQLQQPGAELVKPGASVKLSCKASGYTFTTFWMHWVKQRPGQGLEWIGNIDPSDSETHYNQEFKDKATLTVDRSSNTAYMQLSSLTSEDSAVYYCARSSNWDNFDYWGQGTAVTVSS
VL: DIVMTQAAPSVPVTPGESVSISCRSSQSLLHVNGHTYLYWFLQRPGQSPQLLIYRMSNLASGVPDRFSGSGSGTVFTLRISRVETEDVGIYYCMQHLQYPFTFGSGTKLEIK
modifications: Variable Heavy Chain -- TM-80; Variable Light Chain -- TM-80
B5: the epitope bin result is on record as “Bin 4” and the “Binding Community/Bin” value amounted to 4.
